Paper doi:10.1101/2021.02.01.429088 (bioRxiv, 2021)
Where two headings read alike, the source gives them in different places.

Assays:
SEC [1] = biological target: the molecule itself; assay: SEC
SEC [2] = biological target: the molecule itself; assay: SEC; remark: listed apart in the source

Protein | stoichiometry N (SEC [1]) | stoichiometry N (SEC [2])
T3D σ1 Head (293-455), wild type (domain or fragment, mammalian orthoreovirus T3D (Dearing)) GAMASPNLRYPIADVSGGIGMSPNYRFRQSMWIGIVSYSGSGLNWRVQVNSDIFIVDDYIHICLPAFDGFSIADGGDLSLNFVTGLLPPLLTGDTEPAFHNDVVTYGAQTVAIGLSSGGAPQYMSKNLWVEQWQDGVLRLRVEGGGSITHSNSKWPAMTVSYPRSFT | 3 | –
T3D σ1 Tail-Body (25-291) (domain or fragment, mammalian orthoreovirus T3D (Dearing)) GAMASKGLESRVSALEKTSQIHSDTILRITQGLDDANKRIIALEQSRDDLVASVSDAQLAISRLESSIGALQTVVNGLDSSVTQLGARVGQLETGLAELRVDHDNLVARVDTAERNIGSLTTELSTLTLRVTSIQADFESRISTLERTAVTSAGAPLSIRNNRMTMGLNDGLTLSGNNLAIRLPGNTGLNIQNGGLQFRFNTDQFQIVNNNLTLKTTVFDSINSRIGATEQSYVASAVTPLRLNSSTKVLDMLIDSSTLEINSSGQLTVRS | 3 | –
T3D σ1 Body-Head (170-455), wild type (domain or fragment, mammalian orthoreovirus T3D (Dearing)) GAMAVTSAGAPLSIRNNRMTMGLNDGLTLSGNNLAIRLPGNTGLNIQNGGLQFRFNTDQFQIVNNNLTLKTTVFDSINSRIGATEQSYVASAVTPLRLNSSTKVLDMLIDSSTLEINSSGQLTVRSTSPNLRYPIADVSGGIGMSPNYRFRQSMWIGIVSYSGSGLNWRVQVNSDIFIVDDYIHICLPAFDGFSIADGGDLSLNFVTGLLPPLLTGDTEPAFHNDVVTYGAQTVAIGLSSGGAPQYMSKNLWVEQWQDGVLRLRVEGGGSITHSNSKWPAMTVSYPRSFT | – | 3
